From patent US20140271602, “NUCLEOTIDE-SPECIFIC RECOGNITION SEQUENCES FOR DESIGNER TAL EFFECTORS” (THE BROAD INSTITUTE INC., published 2014)

What was measured:
[1] = molecular target: T1, TALE1-NN (CACNA1C site 1 activator) (Xanthomonas (engineered), UniProt P14727 SEQ:1-983); assay: cell_activity; HEK 293FT, endogenous CACNA1C mRNA; settings: tags: VP64, 2A-GFP
T1 chain: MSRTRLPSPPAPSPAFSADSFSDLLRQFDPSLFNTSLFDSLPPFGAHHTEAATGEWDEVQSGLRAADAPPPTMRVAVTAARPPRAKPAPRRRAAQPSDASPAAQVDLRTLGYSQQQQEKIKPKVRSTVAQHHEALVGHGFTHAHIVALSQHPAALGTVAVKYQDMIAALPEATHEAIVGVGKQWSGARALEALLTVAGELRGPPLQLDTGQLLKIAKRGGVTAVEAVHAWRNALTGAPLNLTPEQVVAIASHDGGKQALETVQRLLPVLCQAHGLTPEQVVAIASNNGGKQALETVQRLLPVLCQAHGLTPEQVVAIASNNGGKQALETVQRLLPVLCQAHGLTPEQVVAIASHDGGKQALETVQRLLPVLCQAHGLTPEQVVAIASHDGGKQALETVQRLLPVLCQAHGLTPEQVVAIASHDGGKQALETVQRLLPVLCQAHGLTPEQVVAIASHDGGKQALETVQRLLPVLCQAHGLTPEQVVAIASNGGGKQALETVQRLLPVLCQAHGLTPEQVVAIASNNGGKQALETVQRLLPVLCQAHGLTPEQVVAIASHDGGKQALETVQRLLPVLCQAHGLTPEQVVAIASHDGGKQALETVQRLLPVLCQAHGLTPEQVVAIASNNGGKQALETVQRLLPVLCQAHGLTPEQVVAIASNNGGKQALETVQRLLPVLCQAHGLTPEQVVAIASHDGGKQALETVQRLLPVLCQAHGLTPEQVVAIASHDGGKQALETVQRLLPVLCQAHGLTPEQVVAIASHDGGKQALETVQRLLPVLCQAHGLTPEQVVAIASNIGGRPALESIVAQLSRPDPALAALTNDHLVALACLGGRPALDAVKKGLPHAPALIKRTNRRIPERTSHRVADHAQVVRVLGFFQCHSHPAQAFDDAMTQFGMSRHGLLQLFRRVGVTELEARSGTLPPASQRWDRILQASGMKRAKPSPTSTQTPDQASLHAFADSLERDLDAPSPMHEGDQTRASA
Description: Changes in mRNA are measured using qRT-PCR as described previously. VP64, VP64 transcription activation domain. All results are collected from three independent experiments in HEK 293FT cells. Error bars indicate s.e.m.; n=3. FIG. 19(b) discloses SEQ ID NOS 63 and 62, respectively, in order of appearance.
Using qRT-PCR, the performance of NN, NK, NH, and HN for targeting endogenous genomic sequences was further compared. The ability of NN-, NK-, NH-, and HN-TALEs to activate CACNA1C transcription by targeting the two endogenous target sites was tested (FIG. 19b). […] Both TALE 1-NH and TALE2-NH were able to achieve similar levels of transcriptional activation as TALE1-NN and TALE2-NN (˜5 and ˜3 folds of activation for targets 1 and 2, respectively) and twice more than TALE-NK and TALE2-NK (FIG. 19b). […] On the other hand, based on all the results from specificity and endogenous activity tests, the RVD NH seems to be a more suitable substitute for NN than NK when higher targeting specificity is desired, as it also provides higher levels of biological activity. Further testing using additional endogenous genomic targets helps validate the broad utility of NH as a highly specific G-targeting RVD.
For the endogenous gene transcriptional level assay to test the biological activities of TALE activators and TALE repressors, HEK 293FT cells were seeded into 24-well plates. […]

[2] = molecular target: T2, TALE1-NN repressor (Xanthomonas (engineered), UniProt P14727 SEQ:1-983); assay: cell_activity; endogenous CACNA1C mRNA; settings: tags: SID
T2 chain: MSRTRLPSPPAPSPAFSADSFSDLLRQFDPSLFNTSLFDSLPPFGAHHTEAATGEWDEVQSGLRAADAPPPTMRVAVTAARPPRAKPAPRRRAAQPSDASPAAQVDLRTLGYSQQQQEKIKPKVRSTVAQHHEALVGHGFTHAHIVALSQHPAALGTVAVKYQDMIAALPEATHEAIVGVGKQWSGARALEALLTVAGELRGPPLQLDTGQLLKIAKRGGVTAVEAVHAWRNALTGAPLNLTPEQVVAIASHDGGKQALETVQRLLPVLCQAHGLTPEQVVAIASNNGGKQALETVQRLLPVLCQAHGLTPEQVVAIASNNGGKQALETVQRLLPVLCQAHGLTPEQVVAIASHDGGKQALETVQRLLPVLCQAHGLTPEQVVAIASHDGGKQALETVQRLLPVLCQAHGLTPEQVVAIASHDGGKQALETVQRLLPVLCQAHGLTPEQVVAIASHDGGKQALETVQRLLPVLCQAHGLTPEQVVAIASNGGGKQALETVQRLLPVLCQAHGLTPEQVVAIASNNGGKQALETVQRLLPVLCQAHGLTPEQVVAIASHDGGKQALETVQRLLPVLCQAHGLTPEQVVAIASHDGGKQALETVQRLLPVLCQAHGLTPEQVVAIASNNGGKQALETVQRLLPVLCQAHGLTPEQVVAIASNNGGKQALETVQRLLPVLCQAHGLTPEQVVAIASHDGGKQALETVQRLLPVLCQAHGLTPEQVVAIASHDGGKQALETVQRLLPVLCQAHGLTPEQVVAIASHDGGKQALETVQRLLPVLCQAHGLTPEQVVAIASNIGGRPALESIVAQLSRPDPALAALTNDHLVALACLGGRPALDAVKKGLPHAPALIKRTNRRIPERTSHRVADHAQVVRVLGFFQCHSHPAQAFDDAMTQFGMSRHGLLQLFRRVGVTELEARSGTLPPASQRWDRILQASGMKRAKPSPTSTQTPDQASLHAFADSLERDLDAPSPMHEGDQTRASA

[3] = molecular target: T3, TALE1-NH repressor (Xanthomonas (engineered), UniProt P14727 SEQ:1-983); assay: cell_activity; endogenous CACNA1C mRNA; settings: tags: SID
T3 chain: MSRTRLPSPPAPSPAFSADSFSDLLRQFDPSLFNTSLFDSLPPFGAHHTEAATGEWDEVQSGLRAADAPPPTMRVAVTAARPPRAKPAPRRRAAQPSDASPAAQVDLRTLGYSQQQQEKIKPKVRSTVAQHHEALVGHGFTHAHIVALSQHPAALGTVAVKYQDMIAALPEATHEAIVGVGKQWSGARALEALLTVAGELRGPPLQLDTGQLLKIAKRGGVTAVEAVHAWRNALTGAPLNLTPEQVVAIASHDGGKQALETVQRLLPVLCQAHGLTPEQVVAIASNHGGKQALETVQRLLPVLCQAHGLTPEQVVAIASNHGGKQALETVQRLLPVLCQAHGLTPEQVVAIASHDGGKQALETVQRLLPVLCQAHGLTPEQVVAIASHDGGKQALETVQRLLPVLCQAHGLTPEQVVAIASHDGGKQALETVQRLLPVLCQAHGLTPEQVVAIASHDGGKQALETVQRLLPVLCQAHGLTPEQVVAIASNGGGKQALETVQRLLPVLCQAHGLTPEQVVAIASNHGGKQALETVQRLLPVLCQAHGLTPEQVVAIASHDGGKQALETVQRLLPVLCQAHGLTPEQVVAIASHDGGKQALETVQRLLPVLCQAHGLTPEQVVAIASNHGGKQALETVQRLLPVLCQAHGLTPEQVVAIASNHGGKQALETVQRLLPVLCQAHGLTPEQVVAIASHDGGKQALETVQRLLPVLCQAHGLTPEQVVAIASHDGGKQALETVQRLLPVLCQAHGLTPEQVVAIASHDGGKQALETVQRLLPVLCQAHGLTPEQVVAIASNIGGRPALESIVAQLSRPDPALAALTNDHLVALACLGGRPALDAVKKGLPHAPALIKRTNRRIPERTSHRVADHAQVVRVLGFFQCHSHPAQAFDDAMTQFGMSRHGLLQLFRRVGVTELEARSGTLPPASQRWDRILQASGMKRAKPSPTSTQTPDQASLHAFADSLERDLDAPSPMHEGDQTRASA

[4] = molecular target: T4, TALE1-NH (CACNA1C site 1 activator) (Xanthomonas (engineered), UniProt P14727 SEQ:1-983); assay: cell_activity; HEK 293FT, endogenous CACNA1C mRNA; reporter 1.9x that of NK; settings: tags: VP64, 2A-GFP
T4 chain: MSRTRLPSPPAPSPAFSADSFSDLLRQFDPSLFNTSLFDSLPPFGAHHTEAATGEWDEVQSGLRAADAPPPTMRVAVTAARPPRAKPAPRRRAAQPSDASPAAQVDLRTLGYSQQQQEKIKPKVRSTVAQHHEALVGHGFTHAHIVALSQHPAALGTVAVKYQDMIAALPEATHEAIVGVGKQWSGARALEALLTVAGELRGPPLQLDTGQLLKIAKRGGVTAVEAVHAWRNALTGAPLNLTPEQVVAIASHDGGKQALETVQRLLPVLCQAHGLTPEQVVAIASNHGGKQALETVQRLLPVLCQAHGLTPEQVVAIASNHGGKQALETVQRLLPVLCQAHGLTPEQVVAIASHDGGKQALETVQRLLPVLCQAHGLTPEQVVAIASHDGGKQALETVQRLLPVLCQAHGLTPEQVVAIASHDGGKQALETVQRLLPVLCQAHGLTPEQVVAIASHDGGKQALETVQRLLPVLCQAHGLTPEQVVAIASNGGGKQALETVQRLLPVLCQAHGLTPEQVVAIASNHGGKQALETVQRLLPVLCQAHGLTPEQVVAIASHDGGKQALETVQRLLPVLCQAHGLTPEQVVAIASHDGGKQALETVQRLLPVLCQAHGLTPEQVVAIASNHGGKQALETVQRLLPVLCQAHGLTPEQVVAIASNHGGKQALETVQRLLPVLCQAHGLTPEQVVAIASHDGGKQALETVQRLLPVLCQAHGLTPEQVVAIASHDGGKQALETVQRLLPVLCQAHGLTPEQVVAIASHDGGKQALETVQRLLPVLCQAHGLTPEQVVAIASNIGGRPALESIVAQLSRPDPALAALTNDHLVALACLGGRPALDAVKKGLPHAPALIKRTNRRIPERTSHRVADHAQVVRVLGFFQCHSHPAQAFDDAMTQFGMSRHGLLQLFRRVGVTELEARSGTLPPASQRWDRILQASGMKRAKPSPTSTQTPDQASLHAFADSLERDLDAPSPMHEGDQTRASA

B1: CACNA1C site 1 (dsDNA)
DNA 1: TCGGCCCCTGCCGGCCCA
DNA 2: TGGGCCGGCAGGGGCCGA
[1]
  activity: ~5 fold activation
[2]
  activity: ~4 fold repression
[3]
  activity: ~4 fold repression
[4]
  activity: ~5 fold activation
